This is an account of results in US10618964B2, “Nanobody against IL-6R” (Ablynx N.V., dated 2020).

The target of assay [1] is T1, native soluble IL-6R in human plasma (human, UniProt P08887). Nature of the assay: ELISA 1, periplasmic extract; competitor IL-6; human plasma. As for the experimental part:
(§1) In this ELISA, plasma was used as a source of native soluble IL-6R. By this assay, we aimed to confirm the alphascreen results and to get a view on the cross-reactivity of the clones towards cynomolgous IL-6R. Human plasma (ELISA 1 and ELISA 3) or cynomolgous plasma (ELISA 2) were pre-incubated with a dilution of the periplasmic extract of the clones together with human IL-6 (50 ng/mL). Subsequently, plasma soluble IL-6R was captured on a B-N12 coated plate and bound IL-6 was detected using anti-IL-6 antibody BAF206 and streptavidin-HRP (ELISA 1 and ELISA 2). The ELISA signal dropped when the Nanobody clone could compete with IL-6 for binding to soluble IL-6R. ELISA 3 was a parallel ELISA in which the detection antibody was replaced by anti-IL-6R antibody BAF227 to exclude false positive competitors, which actually compete with B-N12 (e.g. family 2). Depicted in Table C-5 is the ratio of the OD450 value of the test sample versus the blank OD450 (mock sample). Clones were ordered based on ELISA 1 data.
A general note: In an ELISA, binding on a coated surface is turned into a signal by an enzyme label.

In assay [2] the target is T1, native soluble IL-6R in human plasma. Description: ELISA 3, periplasmic extract; competitor BN-12; human plasma. The method, then: as §1
In assay [3] the target is soluble IL-6R in cynomolgous plasma (cynomolgus monkey, UniProt A0A2K5WN54). Description: ELISA 2, periplasmic extract; competitor IL-6; cyno plasma. As for the experimental part:
as §1

B1: IL6RPMP120C11 (VHH)
VHH: EVQLVESGGGLVQAGGSLSLSCATSGRTISDDTMAWFRQAPGKEREFVATITFSGARTHYSDSVRDRFTISRDNAKNTVYLQMNSLKSEDTAVYYCAASTKYYSSTYNYIHPAFYDIWGQGTQVTVSS
Turning to B1, the OD450 ratio sample/blank in assay [1] came out at 0.673; in assay [2], 0.988; in assay [3], 0.296.

B2: IL6RPMP120B7 (VHH)
VHH: EVQLVESGGGLVQAGGSLSLSCATSGRTISDDTMAWFRQAPGKEREFVATITFSGARTHYSDSVRDRFTISRDNAKNTVYLQMNSLKSEDTAVYYCAASTKYYSSTYNYIHPAFYDIWGQGTQVTVSS
As for B2, the OD450 ratio sample/blank in assay [1] is 0.714; in assay [2] it was 1.03; in assay [3], 0.299.

B3: IL6RPMP106B2 (VHH)
VHH: EVQLVESGGGLVQAGGSLRLSCAASGSIFRINAMGWYRQAPGKQRELVAAAISGGSTNYADFVKGRFTISRDNAKNTVYLQMNSLKPEDTAVYYCNALVVSHNYSDYVPFPDDYWGQGTQVTVSS
For the molecule B3, the values for the OD450 ratio sample/blank in assay [1], in assay [2] and in assay [3] were 0.99, 0.984 and 1.02, respectively.

B4: IL6RPMP119A10 (VHH)
VHH: EVQLVESGGGLVQPGGSLRLSCAASKSIFDINAMYWHRQAPGKQRESVASITSGGMRNYADSVKDRFTISKDNAKNTVYLQMNGLKPDDTAVYYCGLGRYEGGVWRDYWGQGTQVTVSS
For the molecule B4, the OD450 ratio sample/blank turned out to be 0.877 in assay [1], 0.989 in assay [2] and 0.249 in assay [3].

B5: IL6RPMP100A6 (VHH)
VHH: EVQLVESGGGLVQAGDSLRLSCLASGRSFKDDAMGWFRQAPGKEREFVSGIDWRGNIVDAESVKGRFTISRENAKNTLYLQMNHLKPEDTAVYYCAASSVFSDLRYRKNPKYWGQGTQVTVSS
Consider B5, for which the OD450 ratio sample/blank in assay [1] came out at 0.948; in assay [2], 0.923; in assay [3], 0.722.

B6: IL6RPMP101D2 (VHH)
VHH: EVQMVESGGGLVQAGGSLRLSCAASGFAFDDYAIGWFRQAPGKEREGVSSISSSNGNTYYADSVRGRFTISSDNAKNTVYLQMNSLKPEDAGVYYCAAIWGIFFNEKMPVGAYDYWGQGTQVTVSS
B6: the OD450 ratio sample/blank in assay [1] came out at 0.124; in assay [2] it was 0.977; in assay [3] it was 0.822.

B7: IL6RPMP101F1 (VHH)
VHH: EVQLVESGGGLVQAGGSLRLSCAASGFAFDDYAIGWFRQAPGKEREGVSSISSSNGNTYYADSVRGRFTISSDNAKNTVYLQMNSLKPEDTGVYYCAAIWGIFFNEKMPVGAYDYWGQGTQVTVSS
With B7, the OD450 ratio sample/blank was 0.754 in assay [1], 0.957 in assay [2] and 0.829 in assay [3].

B8: IL6RPMP105B8 (VHH)
VHH: EVQLVESGGGLVRAGGSLRLSCAASGFAFDDYAIGWFRQAPGKEREGVSSISSSNGNTYYADSVRGRFTISSDNAKNTVYLQMNSLKPEDTGVYYCAAIWGIFFNEKMPVGAYDYWGQGTQVTVSS
For the molecule B8, the OD450 ratio sample/blank stood at 0.808 in assay [1], 1.03 in assay [2] and 0.816 in assay [3].

B9: IL6RPMP101G4 (VHH)
VHH: EVQLVESGGGLVQAGGSLRLSCAASGFAFDDYAIGWFRQAPGKEREGVSSISSSNGNTYYADSVRGRFTISSDNAKNTVYLQMNSLKPEDTGVYYCAAIWGIFFNEKMPVGAYDYWGQGTQVTVSS
As to B9, the OD450 ratio sample/blank in assay [1] is 0.796; in assay [2], 1.02; in assay [3], 0.815.

B10: IL6RPMP105E11 (VHH)
VHH: EVQLVESGGGLVQAGGSLRLSCAASGFAFDDYAIGWFRQAPGKEREGVSSISSSNGNTYYADSVRGRFTISSDNAKNTVYLQMNGLKPEDTGVYYCAAIWGIFFNEKMPVGAYDYWGQGTQVTVSS
For B10, the values for the OD450 ratio sample/blank in assay [1], in assay [2] and in assay [3] were 0.679, 0.971 and 0.691, respectively.

B11: IL6RPMP101E1 (VHH)
VHH: EVQLVESGGGLVQAGGSLRLSCAASGFAFDDYAIGWFRQAPGKEREGVSSISSSNGNTYYADSVRGRFTISSDNAKNTVYLQMNSLKPEDTGVYYCAAIWGIFFNEKMPVGAYDYWGQGTQVTVSS
Consider B11, for which the OD450 ratio sample/blank in assay [1] is 0.716; in assay [2], 0.947; in assay [3], 0.805.

B12: IL6RPMP101F3 (VHH)
VHH: EVQLVESGGGLVQAGGSLRLSCAASGFAFDDYAIGWFRQAPGKEREGVSSISSSNGNTYYADSVRGRFTISSDNAKNTVYLQMNSLKPEDTGVYYCAAIWGIFFNEKMPVGAYDYWGQGTQVTVSS
For the molecule B12, the OD450 ratio sample/blank is 0.758 in assay [1], 0.984 in assay [2] and 0.822 in assay [3].

B13: IL6RPMP101H3 (VHH)
VHH: EVQLVESGGGLVQAGGSLRLSCAASGFAFDDYAIGWFRQAPGKEREGVSSISSSNGNTYYADSVRGRFTISSDNAKNTVYLQMNSLKPEDTGVYYCAAIWGIFFNEKMPVGAYDYWGQGTQVTVSS
Regarding B13, the figures for the OD450 ratio sample/blank in assay [1], in assay [2] and in assay [3] were 0.772, 0.954 and 0.859, respectively.

B14: IL6RPMP100A10 (VHH)
VHH: EVQLVESGGGLVQAGGSLRLSCAASGRGFSPYTMGWFRQAPGKERVFVAGISWSTGIAHYTDSVKGRFTISRDNAKNTGSLQMNSLKPEDTAVYYCAVVQTTKGNYDYWGQGTQVTVSS
Consider B14, for which the OD450 ratio sample/blank in assay [1] turned out to be 0.748; in assay [2], 0.97; in assay [3] it was 0.189.

B15: IL6RPMP107H5 (VHH)
VHH: EVPLVESGGGLVQAGGSLNLSCNASGDIGSINAMGWYRQAPGQQREWVAVITDTDSTIYPDSVKGRFAISRDGAKNTVHLRMSSLKPEDTAVYYCNAYQAGWGDYWGQGTQVTVSS
For B15, the figures for the OD450 ratio sample/blank in assay [1], in assay [2] and in assay [3] were 0.901, 1.03 and 0.997, respectively.

B16: IL6RPMP108D2 (VHH)
VHH: EVQLVESGGGLVQAGGSLRLSCAASGFTFDDYDIGWFRQAPGKEREGVSGISSSDGNTYYADSVKGRFTISSDNAKNTVYLQMNSLKPEDTAVYYCAAEPPDSSWYLDGSPEFFKYWGQGTQVTVSS
Turning to B16, the OD450 ratio sample/blank was determined as 0.0624 in assay [1], 0.916 in assay [2] and 0.345 in assay [3].

B17: IL6RPMP101A4 (VHH)
VHH: EVQLVESGGGTVQAGGSLKLSCAASGRTFTNYAMGWFRQAPGKEREFVAAIAYATHFADSVKGRFTISRGNAKNTVYLQMNSLKPEDAAVYYCAADLSLSKMVSKITSDMDYWGKGTLVTVSS
As for B17, the OD450 ratio sample/blank in assay [1] is 0.792; in assay [2], 0.99; in assay [3] it was 0.713.

B18: IL6RPMP101H6 (VHH)
VHH: EMQLVESGGGLVQAGGSLRLSCTASGRTFTDYDMGWFRQAPGKEREVVAIIDTNGDNTLTVGSVKGRFAISSDNAKNTVYLQMNSLLPEDTAVYTCAAGAWSALRRSVANYWGQGTQVTVSS
Regarding B18, the OD450 ratio sample/blank in assay [1] was determined as 0.788; in assay [2], 0.954; in assay [3], 0.713.

B19: IL6RPMP101D1 (VHH)
VHH: EVQLVESGGGLVQAGGSLRLSCTASGRTFSDYDMGWFRQAPGKERECVAIIDTNGDNTLIVGSVKGRFAISSDNAKNTVYLQMNSLLPEDTAVYTCAAGVWSSLRHTAANYWGQGTQVTVSS
B19: the OD450 ratio sample/blank in assay [1] worked out at 0.812; in assay [2], 0.928; in assay [3] it was 0.79.

B20: IL6RPMP108D1 (VHH)
VHH: EVQLVESGGGLVQAGGSLRLSCTASGRTFSDYDMGWFRQAPGKERECVAVIDTNGDNTLTVGSVKGRFAISRDNAKNTVYLQMNSLLPEDTAVYTCAAGAWSSLRSTAANYWGQGTKVTVSS
For the molecule B20, the OD450 ratio sample/blank came to 0.87 in assay [1], 1.04 in assay [2] and 0.79 in assay [3].

B21: IL6RPMP108D10 (VHH)
VHH: EVQLVESGGGSVQAGGSLRLSCTASGRTFSDYDMGWFRQAPGKERECVAVIDTNGDNTLTVGSVKGRFAISRDNAKNTVYLQMNSLLPEDTAVYTCAAGAWSSLRSTAANYWGQGTQVTVSS
With B21, the OD450 ratio sample/blank was found to be 0.961 in assay [1], 1.03 in assay [2] and 0.761 in assay [3].

B22: IL6RPMP107H2 (VHH)
VHH: KVQLVESGGGLVQPGGSLRLSCAASGFTFSSYAMSWVRRAPGKGLEWVSAINSDGTGSSYAPFVTGRFTASRDNAKNTLYLQMNSLKPEDTAVYYCTNSNRYDYADFSAVRGQGTQVTVSS
As to B22, the results for the OD450 ratio sample/blank in assay [1], in assay [2] and in assay [3] were 0.865, 0.962 and 0.6, respectively.
